Measurements: paper PMC12335366

Columns and labels:
[1] = biological target: BG505 DS-SOSIP.664 stabilized soluble HIV-1 Env trimer (HIV-1 (clade A, strain BG505)) (UniProt Q2N0S6); assay: negative stain electron microscopy
[2] = biological target: BG505 Env (unmutated), on pseudovirus (HIV-1 (clade A, strain BG505)) (UniProt Q2N0S6)
[3] = biological target: CH505 Env, on pseudovirus (HIV-1 (clade C, isolate CH505))

## CH103 KN Fab (partially UCA-reverted CH103 mutant, E75K and D76N)
[1]
  stoichiometry N (Fab per trimer): 1

## mature CH103 Fab
[1]
  stoichiometry N (Fabs per trimer): 2

B1: CH103 KN antibody (IgG; E75K and D76N in the heavy chain) (antibody, V domains shown)
V domain 1: QVQLQESGPGVVKSSETLSLTCTVSGGSMGGTYWSWLRLSPGKGLEWIGYIFHTGETNYSPSLKGRVSISVDTSKNQFSLRLRSVTAADTAVYFCASLPRGQLVNAYFRNWGRGSLVSVTA
V domain 2: SYELTQPPSVSVSPGQTATITCSGASTNVCWYQVKPGQSPEVVIFENYKRPSGIPDRFSGSKSGSTATLTIRGTQAIDEADYYCQVWDSFSTFVFGSGTQVTVL
[2]
  neutralisation of BG505 pseudovirus (TZM-bl), decrease against mature CH103: > 3 fold
[3]
  neutralisation of CH505 pseudovirus (TZM-bl), decrease against mature CH103: > 3 fold
